Consider six molecules from US20200199533A1 (KING ABDULLAH UNIVERSITY OF SCIENCE AND TECHNOLOGY, published 2020).

The chains are these.
T1: PSGL-1, native glycoprotein from human HSPCs (KG1a, CD34^pos-BM) (human, UniProt Q14242 42-412, native glycosylation and tyrosine sulfation)
T1 construct: mature; also called P-selectin glycoprotein ligand-1
T1 sequence (looked up): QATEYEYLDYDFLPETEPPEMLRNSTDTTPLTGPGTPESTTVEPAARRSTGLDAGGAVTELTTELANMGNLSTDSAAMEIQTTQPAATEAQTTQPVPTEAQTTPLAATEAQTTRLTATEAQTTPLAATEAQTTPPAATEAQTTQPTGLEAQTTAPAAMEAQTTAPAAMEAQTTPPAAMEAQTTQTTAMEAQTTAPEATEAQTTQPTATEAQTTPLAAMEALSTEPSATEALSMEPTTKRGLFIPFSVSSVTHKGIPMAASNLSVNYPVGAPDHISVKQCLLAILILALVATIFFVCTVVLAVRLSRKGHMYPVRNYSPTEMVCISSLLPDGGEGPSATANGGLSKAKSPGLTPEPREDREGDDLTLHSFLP

B1: CD34, native glycoprotein from human HSPCs (KG1a, CD34^pos-BM, CD34^pos-UCB, CD34^pos-AML) (ligand, UniProt P28906 32-385, looked up)
chain: SLDNNGTATPELPTQGTFSNVSTNVSYQETTTPSTLGSTSLHPVSQHGNEATTNITETTVKFTSTSVITSVYGNTNSSVQSQTSVISTVFTTPANVSTPETTLKPSLSPGNVSDLSTTSTSLATSPTKPYTSSSPILSDIKAEIKCSGIREVKLTQGICLEQNKTSSCAEFKKDRGEGLARVLCGEEQADADAGAQVCSLLLAQSEVRPQCLLLVLANRTEISSKLQLMKKHQSDLKKLGILDFTEQDVASHQSYSQKTLIALVTSGALLAVLGITGYFLMNRRSWSPTGERLGEDPYYTENGGGQGYSSGPGTSPEAQGKASVNRGAQENGTGQATSRNGHSARQHVVADTEL
modifications: native glycosylation (about 120-130 kDa form); sialylated O-glycans and tyrosine sulfation are shown to matter for selectin binding
notes: mature; also called E-selL CD34
B2: Recombinant P-selectin human immunoglobulin chimeric protein (Fc fusion)
chain: WTYHYSTKAYSWNISRKYCQNRYTDLVAIQNKNEIDYLNKVLPYYSSYYWIGIRKNNKTWTWVGTKKALTNEAENWADNEPNNKRNNEDCVEIYIKSPSAPGKWNDEHCLKKKHALCYTASCQDMSCSKQGECLETIGNYTCSCYPGFYGPECEYVRECGELELPQHVLMNCSHPLGNFSFNSQCSFHCTDGYQVNGPSKLECLASGIWTNKPPQCLAAQCPPLKIPERGNMTCLHSAKAFQHQSSCSFSCEEGFALVGPEVVQCTASGVWTAPAPVCKAVQCQHLEAPSEGTMDCVHPLTAFAYGSSCKFECQPGYRVRGLDMLRCIDSGHWSAPLPTCEAISCEPLESPVHGSMDCSPSLRAFQYDTNCSFRCAEGFMLRGADIVRCDNLGQWTAPAPVCQALQCQDLPVPNEARVNCSHPFGAFRYQSVCSFTCNEGLLLVGASVLQCLATGNWNSVPPECQAIPCTPLLSPQNGTMTCVQPLGSSSYKSTCQFICDEGYSLSGPERLDCTRSGRWTDSPPMCEAIKCPELFAPEQGSLDCSDTRGEFNVGSTCHFSCDNGFKLEGPNNVECTTSGRWSATPPTCKGIASLPTPGVQCPALTTPGQGTMYCRHHPGTFGFNTTCYFGCNAGFTLIGDSTLSCRPSGQWTAVTPACRAVKCSELHVNKPIAMNCSNLWGNFSYGSICSFHCLEGQLLNGSAQTACQENGHWSTTVPTCQAGPLTIQEA

Assay [1] addresses CD34, native glycoprotein from human HSPCs (KG1a, CD34^pos-BM, CD34^pos-UCB, CD34^pos-AML) (human) (UniProt P28906). Nature of the assay: Stamper-Woodruff assay, CHO-E cells on CD34 immunoprecipitate from KG1a.
Assay [2] shares this target. Nature of the assay: Stamper-Woodruff assay, CHO-E cells on CD34 immunoprecipitate from CD34^pos-BM.
The target of assay [3] is CD34, PNGaseF-treated (human) (UniProt P28906). Nature of the assay: SPR; CD34 captured on 4H11 from PNGaseF-treated KG1a lysate; koff-apparent similar to the control. (SPR reads the build-up and loss of mass on a sensor chip optically.)
The target in assay [4] is CD44 (HCELL), native glycoprotein from human HSPCs (KG1a, CD34^pos fraction) (human) (UniProt P16070). Put plainly: SPR, capture of CD44 from KG1a lysate on immobilized Hermes-3, before normalization.
Chain of CD44 (HCELL), native glycoprotein from human HSPCs (KG1a, CD34^pos fraction) (human) (P16070 21-742): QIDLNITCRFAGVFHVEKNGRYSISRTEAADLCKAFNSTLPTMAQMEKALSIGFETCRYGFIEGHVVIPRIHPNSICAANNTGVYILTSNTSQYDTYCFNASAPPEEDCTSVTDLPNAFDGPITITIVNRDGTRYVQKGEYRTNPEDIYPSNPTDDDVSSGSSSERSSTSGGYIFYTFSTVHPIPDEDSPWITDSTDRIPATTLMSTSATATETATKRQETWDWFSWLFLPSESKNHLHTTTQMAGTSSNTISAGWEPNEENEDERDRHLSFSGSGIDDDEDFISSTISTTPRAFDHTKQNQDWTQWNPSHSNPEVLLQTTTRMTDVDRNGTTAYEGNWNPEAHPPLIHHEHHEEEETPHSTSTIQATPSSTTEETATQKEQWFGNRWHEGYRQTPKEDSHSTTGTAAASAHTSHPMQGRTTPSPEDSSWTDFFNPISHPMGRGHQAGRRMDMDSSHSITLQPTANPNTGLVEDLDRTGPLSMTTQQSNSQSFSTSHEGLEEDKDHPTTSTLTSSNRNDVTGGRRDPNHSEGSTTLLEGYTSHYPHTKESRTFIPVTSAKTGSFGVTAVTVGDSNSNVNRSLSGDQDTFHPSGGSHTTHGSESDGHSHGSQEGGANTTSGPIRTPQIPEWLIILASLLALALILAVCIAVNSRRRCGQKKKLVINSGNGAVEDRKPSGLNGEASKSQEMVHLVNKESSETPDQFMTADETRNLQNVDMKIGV
The target is the same in assay [5]. Put plainly: SPR, capture of CD44 from KG1a lysate on immobilized Hermes-3, estimated from Equation 1.
Assay [6] has the same target. Put plainly: SPR, dissociation of captured CD44 from immobilized Hermes-3 during the wash after the lysate injection, s^-1 as in paragraph 58; fits the 8.6-fold ratio of paragraph 58.
The target in assay [7] is CD34, native glycoprotein from human HSPCs (KG1a, CD34^pos-BM, CD34^pos-UCB, CD34^pos-AML) (human) (UniProt P28906). Put plainly: Stamper-Woodruff assay, CHO-P cells on CD34 immunoprecipitate from KG1a.
The target is the same in assay [8]. Put plainly: Stamper-Woodruff assay, CHO-P cells on CD34 immunoprecipitate from CD34^pos-BM.
Assay [9] has as its target T1, PSGL-1, native glycoprotein from human …. Nature of the assay: CD34 immunoprecipitation, Western blot for PSGL-1 (KPL-1-mAb). The text has this: FIG. 7A is an autoradiograph of Western blots of P-Ig immunoprecipitates from KG1a and CD34^pos-BM lysates probing for CD34 (QBend-10 and EP373Y mAb) or PSGL-1 using KPL-1-mAb. Note that CD34 immunoprecipitates were free from any PSGL-1 contamination. (n=3 independent experiment). FIG. 7B is an autoradiograph of Western blots of CD34 and PSGL-1 immunoprecipitates probed with P-Ig (n=3). FIG. 7C is an autoradiograph of Western blots of E-Ig immunoprecipitates of E-sels from KG1 lysate that were eluted with 30 mM EDTA. The eluate was then immunoprecipitated with CD34-mAbs (4H11 and 581) prior to Western blot analysis with CD34, E-Ig, and P-Ig (n=2 independent experiments). FIG. 7D is a bar graph of Bound cells/field for adherent CHO-P cells. CD34 immunoprecipitates were prepared from CD34^pos-BM and KG1a lysates and spotted on glass slides to test for CHO-P binding using a Stamper-Woodruff assay. n=2 independent experiments. FIG. 7E is a bar graph of # of rolling cells per field showing Adhesion bar graph representing results obtained for the blot-rolling assay using CHO-P cell rolling at 0.25 dyne/cm² (rolling cells/field) over Western blots of immunoprecipitated CD34, CD44, CD43, or PSGL-1 from KG1a cell lysates. EDTA was used as a buffer (gray bars) or CHO-M cells (white bars). […] The resulting proteins were analyzed by Western blot for P-Ig binding.

In assay [10] the target is B1. Put plainly: SPR; CD34 captured on 563-mAb against PSGL-1 captured on KPL-1-mAb.
Assay [11] deals with B1. Nature of the assay: SPR; CD34 captured from KG1a lysate on 563-mAb; apparent rate constant.
Assay [12] has as its target B1. Put plainly: SPR; CD34 captured from KG1a lysate on 563-mAb; apparent association rate.
Assay [13] deals with T1, PSGL-1, native glycoprotein from human …. Nature of the assay: SPR; PSGL-1 captured from KG1a lysate on KPL-1-mAb; apparent association rate.
The target in assay [14] is B1. Put plainly: SPR; CD34 captured from KG1a lysate on 563-mAb, P-Ig injected, 2 mM CaCl2, 25 C; steady-state model; mean.
In assay [15] the target is T1, PSGL-1, native glycoprotein from human …. Put plainly: SPR; PSGL-1 captured from KG1a lysate on KPL-1-mAb, P-Ig injected, 2 mM CaCl2, 25 C; steady-state model; mean.
For assay [16] the target is unchanged. Put plainly: SPR; PSGL-1 captured from KG1a lysate on KPL-1-mAb; apparent rate constant; exponent printed as 10^4, read as 10^-4.
Assay [17] addresses B1. Put plainly: SPR, steady-state fit of consecutive P-Ig injections (labels 5.6 to 1000 under the steps) in CaCl2 over CD34 captured from KG1a lysate on 563-mAb, 150 mM NaCl; the run shown; no rise in the P-Ig/EDTA step.
Assay [18] addresses T1, PSGL-1, native glycoprotein from human …. Nature of the assay: SPR, steady-state fit of consecutive P-Ig injections (labels 5.6 to 1000 under the steps) in CaCl2 over PSGL-1 captured from KG1a lysate on KPL-1-mAb, 150 mM NaCl; the run shown; no rise in the P-Ig/EDTA step.

Take “E-selectin expressed on CHO-E cells (receptor)”: the bound cells (bound cells/field) in assay [1] came out at 26; in assay [2] it was 14.

On to “recombinant E-selectin human immunoglobulin chimeric protein (Fc fusion)”, for which, in assay [3], the fold reduction in RUmax against the control lysate is 1.4 fold.

In general, koff refers to a measure of how fast the partners let go of each other. In assay [4], CD44-mAb Hermes-3 (antibody) displayed an RUmax at the end of the lysate injection of 559 RU. The ligand-capturing efficiency in assay [5] is 20.2%. Further, in [6], the koff worked out at 5e-05 s⁻¹.

Consider “P-selectin expressed on CHO-P cells (receptor)”, for which the figures for the bound cells per field (bound cells per field) in assay [7] and in [8] were 41 and 8, respectively.

B1: the binding result in assay [9] is on record as “no binding”.

Broadly, the kon is the rate constant with which the complex forms. By Kd is commonly meant the concentration at which binding is half-saturated. Read a low Kd as higher affinity. B2: in [10], the “fold weaker KD than P-Ig to PSGL-1” value is roughly 1.7 fold. Further, the values for the off-rate constant (koff) in assay [11] and in assay [16] were 0.0003 s⁻¹ and 0.0002 s⁻¹, respectively. Moreover, the kon in assay [12] amounted to 452 M⁻¹ s⁻¹; in assay [13], 474 M⁻¹ s⁻¹. Further, the dissociation constant (Kd) is 621 nM in assay [14], 372 nM in assay [15], roughly 622 nM in assay [17] and roughly 373 nM in assay [18].
